Assay results reported in patent US20230050773A1 (AstraZeneca / MedImmune, published 2023).
Changes are numbered by the printed parent chain.

B1: NB0919 (antibody, V domains shown)
VH: QVQLQESGPGLVKPSDTLSLTCTVSGFSFSTDYWWSWIRQPPGKGLEWIGYIYVGTSGDTYYNPSLKSRVTISVDTSKNQFSLKLSSVTAADTAVYYCAGADNPYDYFNLWGQGTLVTVSS
VL: DIQMTQSPSSLSASVGDRVTITCRASETISGYLNWYQQKPGKAPKLLIYRASSLQSGVPSRFSGSGSGTDFTLTISSLQPEDFATYYCQQGYSYSDTDNVFGGGTKVEIK
notes: Humanized variant of B7 by CDR grafting; also called Clone 919
B2: NB0937 (antibody, V domains shown)
VH: EVQLVESGGGLVQPGGSLRLSCAASGFSFSTDYWMSWVRQAPGKGLEWVSSIYVGTSGDTYYADSVKGRFTISRDNSKNTLYLQMDSLRAEDTAIYYCAGADNPYDYFNLWGQGTLVTVS
VL: B1 VL with L11V, N34A, Q55E, D70E, E81D
notes: Humanized variant of B7 by CDR grafting; also called Clone 937
B3: NB0920 (antibody, V domains shown)
VH: B1 VH
VL: B1 VL with N34A, A43V, S53T, F83V
notes: Humanized variant of B7 by CDR grafting; also called Clone 920
B4: NB0938 (antibody, V domains shown)
VH: B2 VH
VL: B1 VL
notes: Humanized variant of B7 by CDR grafting; also called Clone 938

target: T1, recombinant human LIF (Leukemia Inhibitory Factor) (human, UniProt P15018 23-202); experiment: cell-based or functional assay
T1 sequence (P15018 23-202 limits assumed, form in doubt): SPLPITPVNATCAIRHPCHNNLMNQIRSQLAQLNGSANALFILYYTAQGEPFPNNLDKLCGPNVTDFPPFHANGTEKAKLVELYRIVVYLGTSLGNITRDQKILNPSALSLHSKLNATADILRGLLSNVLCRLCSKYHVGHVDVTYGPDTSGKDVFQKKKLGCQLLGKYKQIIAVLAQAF

pSTAT3 inhibition assay IC50 (nM)	Binder
52.7 nM	B1
7.22 nM	B2
38.7 nM	B3
11 nM	B4

target: T1, recombinant human LIF (Leukemia …); experiment: ELISA, coated recombinant human LIF, anti-human Fc HRP detection
Experimental: Recombinant human LIF was coated on maxisorp plates overnight at 4° C. The next day, plates were blocked with casein blocking buffer for 1 hour at 37° C. Titrations of each antibody were added to the plates and allowed to bind for 1 hour at room temperature. Plates were washed 4× with PBST followed by incubation with an HRP conjugated anti-human Fc secondary for 30 minutes at RT. Plates were then washed again with 4×PBST and then developed using TMB substrate and 1M HCl.

EC50	Binder
0.17 nM	B1
0.08 nM	B2
0.12 nM	B3
0.13 nM	B4

target: T1, recombinant human LIF (Leukemia …); experiment: BLI (Octet), antibody on anti-human Fc biosensors, human LIF in solution
Experimental: Affinities were determined using biolayer interferometry on the Octet platform. Anti-human Fc biosensors were used to load chimeric B7 and humanized variants, and titrations of recombinant human LIF (200 nM→0 nM) were associated for 180 seconds followed by a 300 second dissociation step. Affinity measurements are recorded in Table 3.

Kd	Binder
19.6 nM	B1
5.02 nM	B2
9.97 nM	B3
10.6 nM	B4

target: T1, recombinant human LIF (Leukemia …); experiment: LIF:LIFR blocking ELISA, coated human LIFR, biotinylated human LIF premixed with antibody
Experimental: Recombinant human LIFR was coated on maxisorp plates overnight at 4 C. The next day, plates were blocked with casein blocking buffer for 1 hr at 37 C. During this period, titrations of each antibody were mixed with biotinylated recombinant human LIF. Following blocking, the antibody/antigen premix was added to the plates and allowed to incubate for 1 hr at RT. Plates were then washed with 4×PBST and an HRP conjugated avidin secondary reagent was added for 30 min at room temperature. Plates were washed again with 4×PBST and then developed using TMB substrate and 1M HCl.

IC50	Binder
16.6 nM	B2
24.4 nM	B4
